# B1: unnamed (protein)
# chain: MRPSSSSLHTAVPLRPRSRAMTALIALATTLGLALALLTAAAPPAAAADLLSQGRPATSSSTENTSTPASAAVDGNTGTRWSSTFSDPQWLSVDLGATATISQVVLRWETAYARAFQIQTSTNGTAWTTVHSSTSGTGGVQTLDVNGNGRYVRMLGTQRGTTYGYSLFEFQVYGSGGGTPPGNGIPDPTATSLETANGPLTTANYTVPNPSGYGSGTVTYPTSSGSYPSVVLMPGYQGTQQNLQWLAPRLASWGFVVVNVGTNTLTDDPESRGRQISAAGTQLLALGNAAGNPLSGKVNGTLGAVGHSMGGGGVMAALRDDSRFRAGVPTAPYHPNANFSSVTEPTFFLTCQSDSVAHGNTYAVPWYNSMSQAEKLYIEVPGDHLCPMTGSGNKAKQGKWIVSFLSLWLRADTRFGPFLCGPVRDPDKNNTSLVTRWMDTCAF
# B2: unnamed (protein)
# chain: MRDPPEYGTQTLHYPTDADPPFAAIAIVPGFVSPESSIIEWGPFLASHGIVVLTIGTNSGSDSPEIRSTALLAALETIKSEHARAGSPIEGKIDTTRLAVGGWSMGGGGTLLTITAHPELKAGLAICPWYTNAFAFAGNTVPVIMFAGTADVLAGGMSQGFYDAIPASTPKMLFEIAGADHFYANNPLMPNVQVGLYGLSWLKVFLEGDDRYRQFLLGPPQNASDFRTTVQ
# B3: unnamed (protein)
# chain: MKSFVKMCVGCVLALVMLAGISSADYRRGPNPSDSMLEARTGPFDFERSTVSRLSAGGYGGGTLFYPTNTNEGPFAGIVVCPGYMESDGQVDWWGPRLASNGFVVFVMQPQNTYMNQPSQRGNQMLDALDDLVSWNNSRNHAIYGLLDPNRLGLMGHSMGGGGTLIAAEDEANNPAVKAAIPLAPYALEKDFSRITCPTMIVACGADMIAPVAQHAMPFYRSLSDSIDKMFIEFAGDSHFCVIDGNMHMPTLGKLGIAWMKVFMDEDARYLTFLNDTNYGATMEVSRFQSNRPYSVPGGGTSGDCQQWTSSNDQHVSAGRAYTQQETVGCDTVTTYYAVGSNMSIGTSGYSSTTLHSSDGGNSYYTGSCP
# B4: unnamed (protein)
# chain: MIHHFSVRALLAAGALLASAAVSAQTNPYERGPAPTTSSLEASRGPFSYQSFTVSRPSGYGAGTVYYPTNAGGPVGAIAIVPGFTARQSSINWWGPRLASHGFVVITIDTNSTLDQPDSRSRQQMAALNQVATLSRTSSSPIYNKVDTSRLGVMGWSMGGGGSLISARDNPSLKAAAPQAPWSSSKNFSSVTVPTLIIACENDSIAPVNQHADPFYDSMSRNPREFLEINGGSHSCANSGNSNQPLLGKKGVAWMKRFIDNDTRYTSFACSNPNSTRVSDFRVAACN
# B5: unnamed (protein)
# chain: MKTTTFKKSALSALTLLFSLSAFSGGGGGDDGNNDQLPAPDTCNSNCGYEIGPNPTLSFLEASQGPLSVSTTNVSSSVDGFGGGTIYYPTNTSQEMAAIAVAPGFTNTQSAIQWWGPILASHGFVVITIDTNGRFDQPESRSRQLDAALSYLISEGNRSSSPISGLVDENRLATMGFSMGGGGTLRSASRNRLSAAVPLAPWNTGGNNFDQIGVPTLIFACENDSTARVNSHASPFYNRIPSSTDKAYLEINNGPHNCANGNNSSNNALLSTYGVSWMKRFLDKDSRYNQFLCGPNHEANSRISEYRDTCNY
# B6: unnamed (protein)
# chain: MKTNRRRRLALAAAALLLSVAAQAQNGSAPPGPDPDPDPNPPESDNPYQRGPDPTAASLEASSGPFAVSTTTVSSASGFGGGTIYYPTNTEGPFAAIAVVPGFVGTESSIDWWGPRLASHGFVVITIDTNSVFDQPDSRATQLMAALDYVISQSNTSSSPISGMVDSNRLGVMGHSMGGGGSLIAARDNPTLKAAIPLAPWNSSTNFSAITVPTLIIACENDTVAPVSSHASPFYNSIPSSTDKAFLEINGGDHFCANSGNSNKDILGKYGVAWMKRFLDNDTRYDPFLCGPNHEADGSAISEYRDTCPY
# B7: unnamed (protein)
# chain: MKTKRHRTATTTVPLPKRSRLARLALAAALLLLSFAAQAQVVIFQENFNSGLGQFTASGTVSTSSGGARMQGCYGCTDGAITSSPISTVGFTNLSLSFDRTTTGLDSGEAGIAEYSTNGSTWTVIESTQSTSSGRVTIALPAAAAGQAALRLRFRVNASLSSETYTVDNIQLEGTPGGGPGGNPYQRGPDPTAALLEASTGPFTYATTTVSSTAASGYGGGTIYYPTNTAGPFAAIAVCPGYTATQSSISWWGPRLASHGFVVITIDTNSTSDQPSSRATQLMAALNQLVTFSNTSGHPIYGKVDPNRLGVMGHSMGGGGTLIAARDNPTLKAAIPLAPWNSSTNFSGVTVPTLIVACESDTIAPVSSHALPFYNSIPSSTKKAYLEINNGDHFCVTTGNSYKAILGKYGVAWMKRFLDNDTRYSPFLCGAPHQADLSGSAISEYRDNCPY
# B8: unnamed (protein)
# chain: MKKLALKKLAACTFSLLFSLSAYSGGGDDGSNSGELPPPSTCSINCGFEIGPDPSLSFVRASQGPLPVSTSIVSSSVDGFGGGTIYYPSTITDEMATIAISPGFTASQSAIAWWGPLLASHGFVVITIDTNGTFDQPTSRGRQLDSALNYLISEGNRANSPVAGLIDENRLATMGHSMGGGGALQSAARNRLSASVPLAPFNTGSNDFNQINVPTMIMGCEDDGVAPVNSHAIPFYQDIPGTTDKALLEIANGPHNCANGGSSNNPTLSTYGVSWMKRFLDKDRRYDQFLCGPDHIADSRISDFRDTCTF
# B9: unnamed (protein)
# chain: MLALRTSFPRVLTRLLAASLATGLVAQAQAAGHERGPAPTAASLEAEAGPFQVASTVLGAPVGYKGGTVFYPKGPGPFALVAFAPGFIETQSWNAWWAKYLASHGFVVVNIDTKSTLAFPPARQREQLAALKDVIQRSHTRGTPFYGLVDATRLGAMGHSMGGGATLELARDTPHIKAIVPMAPFQTTGTDYSRLTVPTLILTCKGDIVASAKSHAAPIYDSLPSSLDKAHVELAGGGGHPCTTSLGTSAEVKKVAAKYGVSWLKRFLDEDTRYSPFLCGAEHEASLKTSVVSAYQGNCPH
# B10: unnamed (protein)
# chain: MKFRLAKLAVLSCALASASAFAQYQKGPDPTTSSLERAGSFATRTISVSSLAASGFGGGRIYYPTASGSYGVIAVSPGYTGTASTMYFWGERLSSHGFVVIVIETNTLLDQPGSRANQLMAALNYTVSQGNSRTSALYGKVDGNRRGVAGHSMGGGGTLIAAADNASLKAAVPMAPWNLSSLSFRGIRVPTMIFGCQSDAIAPVNTHAVPFYNAIPSSTKKGYVEMRLDDHFCVMNGGGHYETLGKLGISWFKRFIDEDTRYSKFLCGTEYNATVRSTEVSDSKNNCPY
# B11: unnamed (protein)
# chain: MKVNKAHSIAVGLLSLVAVAHTHAQTNPYAKGPDPTSAALEADGPFVVSTQNISGAGFGGATVYSPDTAGTYAVVAFCPGFTATRSSVASFGRRLATHGFVVATIDTNSTLDLPPSRGTQLLAALKTVSALSTGPAAGKIDASRKVVSGWSMGGGGTLYASASDETLKTAVGLAPYSAQKKKFSTSVPQLILGGEDDIVAPVSSHSLSFFNQLPNATPKLYAEIADADHYFPTDAESSQPASKLQIAWVKRFADNDTRYEQFLSTAGIQVDLTNGRLSDSRRESTTF
# B12: unnamed (protein)
# chain: MKFNLVAQAALFAATLAAGSAAWAVQIGPAPTKSALEASRGPFSTKSFTVSRPNGYGAGTVYYPTNAGAKVGVISIVPGYLSYQNSINWWGPRLASHGFVVVTIDTNSTTDQPASRSTQQLKALDQVVALGNTSSSPLYNKVDGSRTGVMGWSMGGGGSLISGQNRPSIKAAAPQAPWNSSTNFSSLTVPTLIFGCQSDATAAPASHAIPFYNSMSRNPKQYLEKSLGNHFCFNSANATVGLKGVAWMKRFVDGDTRYTSFACNNPNASGFSSFRTERCS
# B13: unnamed (protein)
# chain: MRPSSSSLHTAVPLRPCSRAMTALIALATTIGLALALLTAAAPPAAAADLLSQGRLATASSTENTSTPASAAVDGNTGTRWASTFSDPQWLSVDLGATATISQVVLRWEAAYARAFQIQTSTNGTVWTTVHSTTTGTGGVQTLDVIGNGRYVRMLGTQRGTTYGYSLFEFQVYGSGGGTPPGNGIPDPTATSLETANGPLTTATYAVPSPSGYGSGTVTYPTDSGSYPGVVLMPGYQGTQQNLQWLAPRLASWGFVVINVGTNTLTDDPASRGRQITAAGSQLIALGNAAGNPLSGRVSGALGAVGHSMGGGGVMAALRDDARFRAGVPTAPYYPDTNFSAVTEPTFFLTCQSDPVAHGNDYAVPWYNSMSQAEKLYIEVPGDHLCPMTGSGNKAKQGKWIVSFLSLWLRADTRFSPFLCGPVRDPDKNNPSLVTRWMDTCSF
# B14: unnamed (protein)
# chain: MGSDDAWIRGEDPTEASIVAMGPYAVGEITEADGLRDGPLYGDASVGDGGATVYYPTDADPPFGGIAVYPGWLYNRDAIAGWGPFLASHGIVMMAVDPQSTGEQPEDRQLGQADALISLKGENTRAGSPLEGKLDTTRLGVMGWSMGGGATWLNADDTASEVYADLVVAISLCGWRPVAVGGNTKAASLQFASVADVLAGGMSQPVYDLIPASTPKMLIEFEGDDHFIANDPSGASWQVGRYGLSWIKVFLERDERYRPFLMTMPMNTTEVRPLM
# Substrate: BHET
# Details: 120 h
row,Protein,plate clearing
1,B1,not clears the plate
2,B2,not clears the plate
3,B3,not clears the plate
4,B4,not clears the plate
5,B5,not clears the plate
6,B6,not clears the plate
7,B7,clears the plate (z > 3 vs empty vector)
8,B8,not clears the plate
9,B9,not clears the plate
10,B10,not clears the plate
11,B11,not clears the plate
12,B12,not clears the plate
13,B13,not clears the plate
14,B14,clears the plate (z > 3 vs empty vector)
